Where a chain is given by its changes, count along the chain named. Where a SMILES comes first, the peptide text is derived from it. [ ]: non-standard residue; d: D form. The star is where a group is joined. Dolaproine = CO[C@@H]([C@@H]1CCCN1)[C@@H](C)C(=O)O; Dil = CC[C@H](C)[C@H](NC)[C@@H](CC(=O)O)OC; X1 = C[C@@H](N*)[C@@H](O)c1ccccc1; NMeV = CN[C@H](C(=O)O)C(C)C
Tests used:
HCT116#9-4 cells = assay: In vitro cell killing assay using HCT116 transfected cells (CellTiter-Glo); format: cell-based, human; details: 3 days of incubation
Method: (§1) YWO.49.H2 and YWO.49.H6 ADCs were tested for the ability to inhibit proliferation of HCT116 cells, a colon cancer cell line, which had been stably transfected with nucleic acid encoding human TAT226. Untransfected HCT116 cells are normally about 5-6 fold less sensitive to free (unconjugated) MMAE than OVCAR3 cells.
Briefly, HCT116 cells were transfected as follows. Nucleic acid encoding epitope-tagged human TAT226 was constructed in the mammalian expression vector pcDNA3.1 (Invitrogen, Carlsbad, Calif.). The epitope tag consisted of amino acids 1-53 of the herpes simplex virus type 1 glycoprotein D (the “gD” tag), which replaced the signal sequence from amino acids 1-22 at the N-terminus of human TAT226. The recombinant vector was transfected into HCT116 cells using Lipofectamine200 (Invitrogen) according to the manufacturer's protocol. Transfected HCT116 cells were cultured in McCoy's 5a medium with 10% FBS and 0.4 mg/ml G418. Cells were stained using anti-gD antibodies and sorted by FACS to select for individual clones expressing recombinant gD:human TAT226 fusion protein. […]
To perform the cell killing assay, HCT116#9-4 cells were seeded in 96-well plates. […] After 3 days of incubation, cell viability was measured using the CellTiter-Glo™ Luminescent Cell Viability Assay (Promega, Madison, Wis.) according to the manufacturer's instructions.

[1] = system: Untransfected HCT116 cells; assay: Sensitivity of untransfected HCT116 cells to free MMAE; format: cell-based, human; details: untransfected HCT116 cells versus OVCAR3 cells
Method: as §1

OVCAR3 cells = assay: OVCAR3 in vitro cell killing assay (CellTiter-Glo); format: cell-based, human; details: 5 days of incubation
Method: YWO.49.H2 and YWO.49.H6 ADCs were tested for the ability to inhibit proliferation of OVCAR3 cells. OVCAR3 cells were seeded in 96-well plates in RPMI with 20% FBS. Anti-MUC16/CA25 antibody conjugated to MC-vc-PAB-MMAE was used as a positive control. MUC16/CA25 is a known ovarian cancer antigen. See, e.g., Yin et al. (2001) J. Biol. Chem. 276:27371-27375. Anti-IL-8 antibody conjugated to MC-vc-PAB-MMAE was used as a negative control. After 5 days of incubation, cell viability was measured using the CellTiter-Glo™ Luminescent Cell Viability Assay (Promega, Madison, Wis.) according to the manufacturer's instructions. The scale on the y-axis of FIG. 17 indicates the relative light units, or “RLUs,” from luciferase luminescence, which is a measure of cell viability.

TAT226-His = biological target: T1, TAT226-His (Homo sapiens, UniProt Q8N2G4); assay: Binding affinity for recombinant antigen by surface plasmon resonance (BIACORE 3000); details: immobilized antibody, TAT226-His 0.7 nM to 500 nM, 25° C., one-to-one Langmuir model; for kon/10^5: association rate; for koff/10^−4: dissociation rate
T1 construct: polyhistidine (C); made in house
T1 sequence (Q8N2G4 21-115): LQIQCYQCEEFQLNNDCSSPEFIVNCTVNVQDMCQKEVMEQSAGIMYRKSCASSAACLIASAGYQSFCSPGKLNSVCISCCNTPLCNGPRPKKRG
Method: The binding affinity of YWO.49, YWO.49.B7, YWO.49.C9, YWO.49.H2, and YWO.49.H6 for recombinant antigen was determined by surface plasmon resonance measurement using a BIACORE® 3000 system (Biacore, Inc., Piscataway, N.J.). Briefly, carboxymethylated dextran biosensor chips (CMS, Biacore Inc.) were activated with N-ethyl-N′-(3-dimethylaminopropyl)-carbodiimide hydrochloride (EDC) and N-hydroxysuccinimide (NHS) according to the supplier's instructions. Anti-TAT226 antibody was diluted to 5 ug/ml with 10 mM sodium acetate, pH 4.8, before injection at a flow rate of 5 ul/minute to achieve approximately 500 response units (RU) of coupled antibody. Next, 1M ethanolamine was injected to block unreacted groups. For kinetics measurements, two-fold serial dilutions of TAT226-His (0.7 nM to 500 nM) were injected in PBS with 0.05% Tween 20 at 25° C. at a flow rate of 25 μl/min. Association rates (kon) and dissociation rates (koff) were calculated using a simple one-to-one Langmuir binding model (BIAevaluation Software version 3.2). The equilibrium dissociation constant (Kd) was calculated as the ratio koff/kon.

[2] = biological target: T2, TAT226 expressed on the surface of OVCAR3 (Homo sapiens, UniProt Q8N2G4); assay: FACS binding to TAT226 expressed on the surface of OVCAR3 cells; details: 5 μg/ml primary antibody, 1 hour on ice
T2 construct: TAT226 expressed on the surface of OVCAR3, a human ovarian cancer cell line; endogenous in cells; host or cells: OVCAR3
T2 sequence (Q8N2G4 21-117): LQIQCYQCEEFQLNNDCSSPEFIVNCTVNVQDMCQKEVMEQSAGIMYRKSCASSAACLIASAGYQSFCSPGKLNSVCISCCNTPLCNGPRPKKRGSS
Method: The ability of anti-TAT226 antibodies to bind to TAT226 expressed on the surface of OVCAR3, a human ovarian cancer cell line, was examined. Fluorescence-activated cell sorting (FACS) was performed on OVCAR3 cells in the absence and in the presence of YWO.49, YWO.49.B7, YWO.49.C9, YWO.49.H2, or YWO.49.H6. Briefly, detached cells were incubated with 5 μg/ml primary antibody for 1 hour on ice, washed, and incubated with secondary antibody (anti-human IgG conjugated to phycoerythrin) for 30 minutes on ice. FACS was performed using a FACScan™ flow cytometer (BD Biosciences, San Jose, Calif.).
The peaks on the left side of each graph represent “background” binding, i.e., binding of secondary antibody only. The peaks on the right side of each graph represent binding of the indicated anti-TAT226 antibody.

With `CC[C@H](C)[C@@H]([C@@H](CC(=O)N1CCC[C@H]1[C@H](OC)[C@@H](C)C(=O)N[C@H](C)[C@@H](O)c1ccccc1)OC)N(C)C(=O)[C@@H](NC(=O)[C@@H](NC)C(C)C)C(C)C` [free MMAE, mono-methyl auristatin E] (H-[NMeV]V[Dil][Dolaproine]-X1) the IC50 (HCT116#9-4 cells) was about 900 pM, the “fold less sensitive than OVCAR3 cells” value [1] was 5-6 fold and the IC50 (OVCAR3 cells) was about 100 pM.

B1: YWO.49.B7: affinity matured anti-TAT226 antibody derived from YWO.49, reformatted as full-length IgG (antibody, V domains shown)
VH: EVQLVESGGGLVQPGGSLRLSCAASGFTITNYGIHWVRQAPGKGLEWVGRIYPDSGATYYADSVKGRFTISADTSKNTAYLQMNSLRAEDTAVYYCARKLWVSLAAMDYWGQGTLVTVSS
VL: DIQMTQSPSSLSASVGDRVTITCRASQDVSTAVAWYQQKPGKAPKLLIYSASFLYSGVPSRFSGSGSGTDFTLTISSLQPEDFATYYCQRSVFTPPAFGQGTKVEIKR
With B1 the “kon/10^5” value (TAT226-His) was 0.27, the “koff/10^−4” value (TAT226-His) was under 0.05 and the “binding to OVCAR3 cells by FACS” value [2] was “did not bind significantly”.

B2: YWO.49.C9: affinity matured anti-TAT226 antibody derived from YWO.49, reformatted as full-length IgG (antibody, V domains shown)
VH: B1 VH with S103T, A106S
VL: B1 VL with R90K, V92Y, F93N, A97T
For B2, the “kon/10^5” value (TAT226-His) was 1.53, the “koff/10^−4” value (TAT226-His) was under 0.05 and the “binding to OVCAR3 cells by FACS” value [2] was “comparable to that observed for YWO.49.H2 and YWO.H6”.

B3: YWO.49.H2: affinity matured anti-TAT226 antibody derived from YWO.49, reformatted as full-length IgG (antibody, V domains shown)
VH: B1 VH with A106P
VL: B1 VL with R90Q, V92Y, F93G, P96F, A97I
B3 was tested, and the “kon/10^5” value (TAT226-His) was 0.22.

B4: YWO.49.H6: affinity matured anti-TAT226 antibody derived from YWO.49, reformatted as full-length IgG (antibody, V domains shown)
VH: B1 VH with V102I, L104I, A106G
VL: B1 VL with R90H, V92Y, F93A, P96F, A97T
With B4 the “kon/10^5” value (TAT226-His) was 1.86 and the “koff/10^−4” value (TAT226-His) was 0.09.
